# In patent US20080227696A1 (BIOSURFACE ENGINEERING TECHNOLOGIES, published 2008):
# Where no end group is shown, it is not given here. [ ]: non-standard residue; d: D form. Ahx = NCCCCCC(=O)O
# B1: PBA2-1 (peptide)
# chain 1: VRKIEIVRKKK[Ahx][Ahx][Ahx]RKRKLERIAR-NH2
# chain 2: VRKIEIVRKK
# modifications: also: chain 2 bound through its C-terminus to the side chain of Lys11 of chain 1 (branched homodimer), bond at chain A 11 to a chain's C-terminus
# notes: also called mimetic of PDGF; PDGF analog PBA2-1
# Biological target: T1, Soluble PDGF receptor, recombinant chimera of human PDGF-R-alpha (R&D Systems) (human, UniProt P16234 24-524)
# T1 construct: Bought from R&D Systems; immobilized on a CM5 chip by EDC/NHS; not shown: called a recombinant chimera
# Experiment: SPR, BIAcore 2000, receptor immobilized on CM5 chip, peptide as analyte, 1:1 global fit
# Procedure: Surface Plasmon Resonance (SPR) Analysis. Real-time biomolecular interactions were analyzed with a BIAcore 2000 system (Biacore Inc., Piscataway, N.J.). Soluble PDGF receptor, recombinant chimera of human PDGF-R-alpha and PSGF-R-beta (R &D Systems, Minneapolis, Minn.), was immobilized on research grade CM5 chips (Biacore Inc., Piscataway, N.J.). Following activation with EDC/NHS, the receptors were immobilized on activated CM5 chips. To obtain kinetic data, different concentrations of analytes in HBS-EP buffer were injected over the sensor chip at a flow rate of 50 μl/min. Peptide binding was measured in resonance units (RU). At the end of each sample injection (120 s) buffer was passed over the sensor surface to monitor the dissociation phase. Reference responses from blank flow cells were subtracted from receptor-containing flow cells for each analyte injection and the kinetic parameters for each interaction were determined by globally fitting the experimental data to a 1:1 interaction with BIAEVALUATION software (Biacore Inc., Piscataway, N.J.). The association rate constant and the dissociation rate constant (kₐ and kd, respectively), and the equilibrium dissociation constant (KD) are presented in the Table 4 for the receptors and PBA2-1.
# T1 sequence (P16234 24-524, change not shown): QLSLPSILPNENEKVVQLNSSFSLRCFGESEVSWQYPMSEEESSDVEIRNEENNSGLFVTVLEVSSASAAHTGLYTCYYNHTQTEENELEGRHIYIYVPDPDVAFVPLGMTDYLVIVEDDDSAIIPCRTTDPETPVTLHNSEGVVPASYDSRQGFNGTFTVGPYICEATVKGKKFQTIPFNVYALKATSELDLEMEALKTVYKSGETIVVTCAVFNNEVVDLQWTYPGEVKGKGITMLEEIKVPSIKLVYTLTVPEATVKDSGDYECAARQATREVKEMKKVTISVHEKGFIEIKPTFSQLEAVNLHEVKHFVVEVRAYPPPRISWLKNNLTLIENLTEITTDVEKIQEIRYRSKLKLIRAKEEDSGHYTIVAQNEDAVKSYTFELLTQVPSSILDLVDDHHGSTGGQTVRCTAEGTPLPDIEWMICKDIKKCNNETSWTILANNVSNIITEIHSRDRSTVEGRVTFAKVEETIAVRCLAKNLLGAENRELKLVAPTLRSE
binder,measurement,value
B1,Kd,23.3 nM
